Measured values from paper PMC10700546, “Atg18 oligomer organization in assembled tubes and on lipid membrane scaffolds” (Nature Communications, 2023).
Positions count from the first letter of the chain named. In names and notes the source's numbering stands.

T1: Autophagy-related protein 18 (Atg18), wildtype (Saccharomyces cerevisiae), P43601
T1 chain: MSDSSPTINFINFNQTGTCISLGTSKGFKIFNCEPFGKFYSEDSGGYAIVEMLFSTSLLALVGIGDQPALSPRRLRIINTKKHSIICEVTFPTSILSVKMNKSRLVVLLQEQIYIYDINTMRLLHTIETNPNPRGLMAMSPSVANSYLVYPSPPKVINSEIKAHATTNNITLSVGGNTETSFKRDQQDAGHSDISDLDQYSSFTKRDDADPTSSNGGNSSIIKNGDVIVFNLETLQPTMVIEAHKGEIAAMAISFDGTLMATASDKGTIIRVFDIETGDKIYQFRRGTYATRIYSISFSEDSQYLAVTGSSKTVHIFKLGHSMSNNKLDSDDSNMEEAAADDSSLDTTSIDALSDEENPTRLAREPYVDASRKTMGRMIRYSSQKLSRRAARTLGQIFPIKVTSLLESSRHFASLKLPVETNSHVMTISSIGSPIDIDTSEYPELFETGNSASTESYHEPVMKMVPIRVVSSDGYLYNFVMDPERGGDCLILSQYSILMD

B1: Autophagy-related protein 18 (Atg18), wildtype, P43601 1-500 (natural protein)
chain: T1 chain
B2: Atg18-P72A/R73A (natural protein, Saccharomyces cerevisiae, UniProt P43601 1-500, looked up)
chain: T1 chain with P72A, R73A
notes: Atg18, Saccharomyces cerevisiae, Uniprot ID P43601, with P72A and R73A; Same construct as the wild type apart from the two substitutions; also called Atg18-PR72AA; PR72AA; source: E. coli BL21(DE3), purified (Ni-NTA, TEV cleavage, second Ni-NTA, gel filtration); not shown: 6xHis, N-terminal, cleaved

Columns and labels:
[1] = molecular target: T1, Autophagy-related protein 18 (Atg18), …; assay: single-particle cryo-EM, 2D classification; 18 uM soluble Atg18 in high-salt buffer (50 mM TRIS, 500 mM NaCl, 10 mM KPO4, 1 mM DTT, pH 7.5); monomer and dimer classes; settings: remark: other sources report otherwise
[2] = molecular target: the molecule itself; assay: cryo-EM structure; helical reconstruction of Atg18 tubes; 20 uM tube solution in tube buffer (20 mM HEPES, 100 mM KAc, 1 mM DTT, pH 7.2); self-assembly into a helical lattice

| Binder | stoichiometry N [1] | binding result [2] |
| --- | --- | --- |
| B1 | 2 | – |
| B2 | – | binds |
